In experiment [1] the target is FLAG-sBST2-GST (human) (UniProt Q10589). Kind of experiment: ELISA, plate coated with FLAG-sBST2-GST, control IgG1 (κ). In general terms: An ELISA detects its analyte on a solid surface through an enzyme-linked reagent.
Experiment [2] shares this target. Nature of the experiment: ELISA, plate coated with FLAG-sBST2-GST, control IgG4 (κ).

Chain of FLAG-sBST2-GST (human) (Q10589 other isoform, or with tags, fused parts or gaps): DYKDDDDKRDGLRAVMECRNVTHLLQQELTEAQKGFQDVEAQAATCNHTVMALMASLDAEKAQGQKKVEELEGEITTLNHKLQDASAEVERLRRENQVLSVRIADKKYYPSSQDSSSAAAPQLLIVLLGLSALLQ

In the experiment with FLAG-sBST2-GST (human) [1], Control IgG1 (κ) (antibody) returned an A450 nm/A570 nm of 0.014 absorbance.

Take Control IgG4 (κ) (antibody): in the experiment with FLAG-sBST2-GST (human) [2], the A450 nm/A570 nm was 0.013 absorbance.

(Values after US20040136982A1.)
